Assay results taken from article PMC7244511, “Phosphoproteomics identifies dual-site phosphorylation in an extended basophilic motif regulating FILIP1-mediated degradation of filamin-C” (Communications Biology, 2020).

B1: Myc-hFLNc d18–21 wild type (expressed in HEK293 cells) [human] / FILIP1 CT-GFP (expressed in HEK293 cells) [not stated] (parent)
chain 1: LELSKRYSRALRPSVNGRRMVDVPVTSTGVQTDAVSGEAAEEETPAVFIRKSFQEENHIMSNLRQVGLKKPVERSSVLDRYPPAANELTMRKSWIPWMRKRENGPSITQEKGPRTNSSPGHPGEVVLSPKQGQPLHIRVTPDHENSTATLEITSPTSEEFFSSTTVIPTLGNQKPRITIIPSPNVMPQKQKSGDTTLGPERAMSPVTITTFSREKTPESGRGAFADRPTSPIQIMTVSTSAAPAEIAVSPESQEMPMGRTILKVTPEKQTVPTPVRKYNSNANIITTEDNKIHIHLGSQFKRSPGTSGEGVSPVITVRPVNVTAEKEVSTGTVLRSPRNHLSSRPGASKVTSTITITPVTTSSARGTQSVSGQDGSSQRPTPTRIPMSKESIIIHQLRMNSR
chain 2: TGDDSMRTSQLNVGTSTDVSLKITESDLSQLTASIRAPSGNEEPCLLKRLPNRHIGISFTPKEVGEHVVSVRKSGKHVTNSPFKILVGPSEIGDASKVRVWGKGLSEGHTFQVAEFIVDTRNAGYGGLGLSIEGPSKVDINCEDMEDGTCKVTYCPTEPGTYIINIKFADKHVPGSPFTVKVTGEGRMKESITRRRQAPSIATIGSTCDLNLKIPGNWFQMVSAQERLTRTFTRSSHTYTRTERTEISKTRGGETKREVRVEESTQVGGDPFPAVFGDFLGRERLGSFGSITRQQEGEASSQDMTAQVTSPSGKVEAAEIVEGEDSAYSVRFVPQEMGPHTVAVKYRGQHVPGSPFQFTVGPLGEGGAHKVRAGGTGLERGVAGVPAEFSIWTREAGAGGLSIAVEGPSKAEIAFEDRKDGSCGVSYVVQEPGDYEVSIKFNDEHIPDSPFVVPVASLSDDARR
B2: Myc-tagged FLNc d18–21 WT (expressed in C2 cells) [human] / FILIP1 CT-GFP (expressed in C2 cells) [not stated] (parent)
chain 1: MRSRNQGGESASDGHISCPKPSIIGNAGEKSLSEDAKKKKKSNRKEDDVMASGTVKRHLKTSGECERKTKKSLELSKEDLIQLLSIMEGELQAREDVIHMLKTEKTKPEVLEAHYGSAEPEKVLRVLHRDAILAQEKSIGEDVYEKPISELDRLEEKQKETYRRMLEQLLLAEKCHRRTVYELENEKHKHTDYMNKSDDFTNLLEQERERLKKLLEQEKAYQARKEKENAKRLNKLRDELVKLKSFALMLVDERQMHIEQLGLQSQKVQDLTQKLREEEEKLKAITSKSKEDRQKLLKLEVDFEHKASRFSQEHEEMNAKLANQESHNRQLRLKLVGLTQRIEELEETNKNLQKAEEELQELRDKIAKGECGNSSLMAEVENLRKRVLEMEGKDEEITKTESQCRELRKKLQEEEHHSKELRLEVEKLQKRMSELEKLEEAFSKSKSECTQLHLNLEKEKNLTKDLLNELEVVKSRVKELECSESRLEKAELSLKDDLTKLKSFTVMLVDERKNMMEKIKQEERKVDGLNKNFKVEQGKVMDVTEKLIEESKKLLKLKSEMEEKVYNLTRERDELIGKLKSEEEKSSELSCSVDLLKKRLDGIEEVEREITRGRSRKGSELTCPEDNKIKELTLEIERLKKRLQQLEVVEGDLMKTEDEYDQLEQKFRTEQDKANFLSQQLEEIKHQIAKNKAIEKGEVVSQEAELRHRFRLEEAKSRDLKAEVQALKEKIHELMNKEDQLSQLQVDYSVLQQRFMEEENKNKNMGQEVLNLTKELELSKRYSRALRPSVNGRRMVDVPVTSTGVQTDAVSGEAAEEETPAVFIRKSFQEENHIMSNLRQVGLKKPVERSSVLDRYPPAANELTMRKSWIPWMRKRENGPSITQEKGPRTNSSPGHPGEVVLSPKQGQPLHIRVTPDHENSTATLEITSPTSEEFFSSTTVIPTLGNQKPRITIIPSPNVMPQKQKSGDTTLGPERAMSPVTITTFSREKTPESGRGAFADRPTSPIQIMTVSTSAAPAEIAVSPESQEMPMGRTILKVTPEKQTVPTPVRKYNSNANIITTEDNKIHIHLGSQFKRSPGTSGEGVSPVITVRPVNVTAEKEVSTGTVLRSPRNHLSSRPGASKVTSTITITPVTTSSARGTQSVSGQDGSSQRPTPTRIPMSKGMKAGKPVVAAPGAGNLTKFEPRAETQSMKIELKKSAASSTTSLGGGKG
chain 2: B1 chain 2

Variants of: B1
Assay: co-immunoprecipitation (anti-Myc) with quantitative immunoblot
Conditions: HEK293 cells transiently expressing FILIP1 CT-GFP and Myc-hFLNc d18–21, n = 3–6, read off a plot

| Variant | ratio to parent |
| --- | --- |
| chain 2 S287A | 1.4 |
| chain 2 S287D | 1 |
| chain 2 S287A S290A | 2.1 |
| chain 2 S287D S290D | 0.82 |

More lines, now with the values ahead:

| ratio to parent | Variant |
| --- | --- |
| 1 | chain 2 S290A |
| 1 | chain 2 S290D |

Variants of: B2
Assay: as above
Conditions: C2 cells transiently expressing FILIP1 CT-GFP and Myc-hFLNc d18–21, n = 3, read off a plot

| ratio to parent | Variant |
| --- | --- |
| 1.8 | chain 2 S287A S290A |
| 0.82 | chain 2 S287D S290D |
